Experimental data reported in patent US20220155286.

Key:
[1] = biological target: MTH1-10aa-S-tag fusion protein
[2] = biological target: MTH1-S-tag fusion protein (no linker between MTH1 and the S-tag peptide)
[3] = biological target: BCL6 (B-Cell Lymphoma 6) S-Peptide micro-tag construct
[4] = biological target: MTH1-3aa-S-tag fusion protein

B1: His tagged RNase donor protein (S protein) (protein)
chain: MSSSNYCNQMMKSRNLTKDRCKPVNTFVHESLADVQAVCSQKNVACKNGQTNCYQSYSTMSITDCRETGSSKYPNCAYKTTQANKHIIVACEGNPYVPVHFDASVHHHHHH
[1]
  S protein concentration at which the fluorescent signal starts to saturate: S protein concentration started to saturate signal at about 1-2 ng/ul S protein
  fluorescent signal (cleavage of the FRET substrate by complemented RNase S), 50 ug lysate, thermal gradient: there was no significant effect of spacer length on fluorescent signal
[2]
  S protein concentration at which the fluorescent signal starts to saturate: S protein concentration started to saturate signal at about 1-2 ng/ul S protein
  fluorescent signal (cleavage of the FRET substrate by complemented RNase S), 50 ug lysate, thermal gradient: there was no significant effect of spacer length on fluorescent signal
[3]
  fluorescence signal (RLU/min) after heat challenge: the micro-tag construct was denatured in the heat challenge and there was less micro-tag available for enzyme complementation resulting in lower fluorescence signal
[4]
  S protein concentration at which the fluorescent signal starts to saturate: S protein concentration started to saturate signal at about 1-2 ng/ul S protein
  fluorescence increase (RLU change per minute): detected fluorescence increase that was directly proportional to the amount of micro-tagged protein in the reaction
  fluorescent signal (cleavage of the FRET substrate by complemented RNase S), 50 ug lysate, thermal gradient: there was no significant effect of spacer length on fluorescent signal
  kinetic trace of the S-tag (Micro-tag) fluorescence signal over 20 minutes: A kinetic trace of the development of the S-tag (Micro-tag) fluorescence signal over the course of 20 minutes
